The nature of the data set: label from the status in PepcDB records.
On to “MGHHHHHHSHMPDHGDWTYEEQFKQLYELDGDPKRKEFLDDLFSFMQKRGTPVNRIPIMAKQVLDLFMLYVLVTEKGGLVEVINKKLWREITKGLNLPTSITSAAFTLRTQYMKYLYPYECEKRGLSNPNELQAAIDSNRREGRR”, for which the protein production entry is given as “not failed”.
To “AQSDGWSPKDHNLIKSVREDGRFLSSYGVVHAMLRNTEPRYAFHRDFSPKEFRKWQKGLRHAMEEIMKFPQIKNSPAPVCIKREQREGYRLEKWEFYPLPKCVSTFLVLIPDNINKPVPAILCIPGSGGNKEGLAGEPGIAPKLNDRYKDPKLTQALNFVKEGYIAVAVDNPAAGEASDLERYTLGSNYDYDVVSRYLLELGWSYLGYASYLDMQVLNWMKTQKHIRKDRIVVSGFSLGTEPMMVLGTLDTSIYAFVYNDFLCQTQERAEVMTMPDKNGRRPFPNSIRHLIPDFWKNFNFPDIVAALAPRPIILTEGGLDRDLDLVRKAYAIVGTPDNVKIYHYKKFSDPDTRKNVEYLPEGLDRNEYFRMVNVDGPNHYFKSELVVPWLRKLLEER” belongs “not failed”; to “MKRGRRASPAAGQHFKVLACEPCVSRRGIYTTLSLQLQKRALQGLQGGAGRRDLSLDRKGFHGLFLRCPFAALRCCQLRLLLGELLLSIFNLLLYFLDRIIEGRLARTANAATTTCCTSLAAFGGSLIRAFLCLSGGRRSSSRLGCFGVGRLDRDRQRAGVAVQCRSIDGSHDGLLGF”, “failed”; to “MCDQTKHSKCCPAKGNQCCPPQQNQCCQSKGNQCCPPKQNQCCQPKGSQCCPPKHNHCCQPKPPCCIQARCCGLETKPEVSPLNMESEPNSPQTQDKGCQTQQQPHSPQNESRPSK”, “failed”.
Turning to “MKETHNSQDRLAYLKQQLPADITRSVIDTLKEDLGGTLDPAADITASLIPADRISTATIITREAGVFCGQLWADEVFKQLGGQVSIEWHVQDGDTLTPNQTLCTLTGPARILLTGERNAMNFIQTLSGCATATARYVQELKGTQCRLLDTRKTIPGLRSALKYAVACGGGYNHRIGVFDAYLIKENHIIACGGIRQAISTAKQLNPGKPVEVETETLAELEEAISAGADIIMLDNFSLEMMREAVKINAGRAALENSGNITLDNLKECAETGVDYISVGALTKHLKALDLSMRFKS”, the protein production result is “not failed”.
As for “MKPALRRGLVWIGCTASSWGGLVLPSAWSPAAIAQTRAPTNQTGMQLQINGRAIAGQWVVEPASQGSFIWIEEVALRNGLGLELLPGLSTTRQAIRWFSDGRVAEGVEQVPARRQNGRRFLEVSSLARRSGWSLAVLADQLVIQLPAATLRNLRDGQQGANRRLVLDFDRPTPWEWDAIGQQLRFDGSVPAQLVPSLQRYGIQAEQQGDRTSLRLPAGLGVRVSSLGSPDRIFIDLPTTTGLLSPPAGLGSNPAPLTPAPPDLAGTQLQQRQVTVDGATFPVFVIQLDLRQPNVRLAPIWAGNGSLEGTQVLQAVARDRGAAIAINAGFFNRNNRLPLGAIRRDNIWYSGPILNRGAMAWNDQGEVLIDRLGLQETLQLSSGTRIPLVALNSGYVRAGAARYTEAWGNSYQTILDNEVVVTVQGDRVVSQSQADKAGSNRFTIPRNGYLIVLRSANSLRTSLVNGTTIQVLQQAQPSQFDRFPHALGGGPLLVKSGRVVVNPQAEGFSRAFEIEAAPRSAIGLMPDGRLVLVAAHEQNQGQGPTLPQMAAIMQQLGVVDALNFDGGSSTSLIVNGQLVNRARGSAARVHNGLGVFLGPTTPASLR”, the protein production result is recorded as “failed”.
To “MLKPMYYEFFFIFPKERELFESFLLDATHLALEESSLENLKAFDDKETIGFISQSNWHYFATHDPLKKDLKENLKEKPPHLKNFVILRSQKDLNNSLIPALEAFCLNLKQNLQSEFDFFYLSRNLASKDWLEAYKQAILPVQCTKFYIHPSWHQKPSHVVTNDCIMIDPALAFGSGHHESTSMCLELLSDIDLKRKNALDVGCGSGILSIALKKQGVSALVACDTDSLAVEETLKNFSLNQIPLLVQDKVIYGSTQKIEGRFDVIVANLVADVIKSLYSEFVRLCNHTLILSGILETHLNSVLQIYYNGFEVLEQRQRNEWVALKLLKKQPIN” belongs “failed”; to “MDLKILSLATDKTTDKLQEFLQTLKDDDLASLLQNQAVKGRAVGTLLRAVLKGSPCSEEDGALRRYKIYSCCIQLVESGDLQQDVASEIIGLLMLEVHHFPGPLLVDLASDFVGAVREDRLVNGKSLELLPIILTALATKKEVLACGKGDLNGEEYKRQLIDTLCSVRWPQRYMIQLTSVFKDVCLTPEEMNLVVAKVLTMFSKLNLQEIPPLVYQLLVLSSKGSRRSVLDGIIAFFRELDKQHREEQSSDELSELITAPADELYHVEGTVILHIVFAIKLDCELGRELLKHLKVALRCF”, “failed”; to “MPEASSPASEKSLSRLLLELLWQLAALLIPIFFVTLLPPPAALGVLLGCAAAMTLAARLGWPKTARGLARLMISAAFGLGFSLGRALPAYWDIAAAFTSIFAGLAAVSHLERRLGLVQPSPTPISAWGGNEPQQTPEGQPIRVFNHGEIAMGGPTYCDYLFPDGVLLQGLGSSARFSSDGRYFAAPLPSRQHWGLAILDREQRRLYRCNREHFWELDAFSADTLSGRHSPLVDNGQHQASLNSLLQEAECVELVAVADLWLEPGQWLEALARQDFEESAPHGSHRLHASLALPASLRALEQPLEPLRTPPYRISIDGQPSGLLLRADAPRIWRDDGRALACIAHEQAQPEAACCWLWQADKGWRALPAPWVASHAEPSFYPGPLLSLDRHWLGYSAYLDLAEADHGRYGYRLHSTHSDSETGVGHDRQGCLQVAPLPLTRTQLLQPLDGSGARGESRIQSQPLLGEQRALFSWLTDNPRGLGAYRCQIGTWQLPGCWLLDHRVSDCQRYLALLPWSETLELAPQVVVADLQQQRLIYSPALLAARLLDFRQGRLSLAVLVGRLDPDHASSPLQRFNRPAPAPEHAAAFCTEGPASQPCYERQDWLVIDDQLQPVAPWRLVDRPQAAVAEGDFIQPAPDGRDAAWLFGSETEYADSWLRETSPRLGGHLLTASGCAVGDLAPSLIWSTDARYLALTRLRLGAGDPQQGYRAWQLLLLDVQERSLRIAPDWLRHRPLFQHFDARGLALQLFERDWQAADDPDPGRSLEWALEDLLRLPAEPLREHQGLWLSAADWPQARAWQALRRPAHPAFRAGA”, “failed”.
As for “MYMDHFPTFGGYIFSMATYYSLIPLTLLIALRAKWDYIMRHYWRSVARGFIIAILIALPVTSILQFKLTGDYLYVYSLTKTGVCITSSCLISRMKENEYYKFNVTGLQKYGIPNLGIMQAYRLVDKKFNKLKWRYDVVNAVVIIRSLFPLPITEVWSYEVDPKESHKIIGLRKFYVYYPYNPGTLLSRAYDFEFTMFLWGSGGGVA”, the entry is “failed”; as for “MIVFVRFNSSYGFPVEVDSDTSIFQLKEVVAKRQGVPADQLRVIFAGKELQNHLTVQNCDLEQQSIVHIVQRPQRKSHETNASGGDKPQSTPEGSIWEPRSLTRVDLSSHILPADSVGLAVILDTDSKSDSEAARGPAAKPTYHSFFVYCKGPCHKVQPGKLRVQCGTCRQATLTLAQGPSCWDDVLIPNRMSGECQSPDCPGTRAEFFFKCGAHPTSDKDTSVALNLITNNSRSIPCIACTDVRNPVLVFQCNHRHVICLDCFHLYCVTRLNDRQFVHDAQLGYSLPCVAGCPNSLIKELHHFRILGEEQYNRYQQYGAEECVLQMGGVLCPRPGCGAGLLPEQGQRKVTCEGGNGLGCGFVFCRDCKEAYHEGECDSMFEASGATSQAYRVDQRAAEQARWEEASKETIKKTTKPCPRCNVPIEKNGGCMHMKCPQPQCKLEWCWNCGCEWNRACMGDHWFDV”, “failed”.
To “GGDTELSDSPTLPLNSILAGNCIEILKTLPDNSVDLIFADPPYNLQLSGELFRPEGSRVDAVNNAWDKFDTFAAYDHFTRLWLKEAHRVLKEDGTIWVIGSYHNIFRVGTALQDQGFWILNDIIWRKSNPMPNFKGRRFTNAHETLIWASKSDKSRYVFNYASLKTFNDDLQMRSDWLLPICSGNERLKGENGQKIHPTQKPEALLYRIILASSRPDDVILDPFFGTGTTGVIARHLRRHWIGIEQDPTYIKAAQARIDKAEVF” belongs “not failed”.
For “VDMLLVGAGIMSATLAVLLKELDPNLKMEVVELQESGAIESSNPWNNAGTGHAGLCELNYTPQSADGSIDIKKAVGINTMFEVSKQFWSHLVAKGTFGSPKTFINPVPHLSFVRGSEGIAYLKKRFESLTKHHAFETMVYSEDKATLAEWMPLMMPGRPADEAIAATRVEGGTDVNFGALTNQLLQHLAQQPGAQIRYNQKVTHLRRADNGWRVTVKDTRNGGDREIQARFVFLGAGGGALPLLQLSGIPEGKGFGGFPVSGQWLRCDNPEIVKQHQAKVYSQAEVGSPPMSVPHLDTRVVDGKKSLLFGPYAGFSTKFLRHGSFLDLPLSVRPGNILPMLSVARDNMDLTRYLIGQVMQSPEQRLEALRKFYPEARAEDWRLEVAGQRVQIIKKDPKKGGILQFGTELVAAHDGSIAALLGASPGASVTVSIMLGLIERCFPEQARSPEWSAKLKEIFPAREKELESDAELYRSVSSRCSEVLELTAKNDVQAPVNAE”, the protein production entry was “failed”.
For the sequence “MLLLWLVVLVIGAAYLTHRRLAPLQILGIVAAYVLLMGIFSSAPGWLLALIWVVLALKIALVALPQWRRKLFTAPVFRWFQRTLPPMSQTEREAIDAGTVWWDGELFSGRPDWRTLLAYPAPKLTEEEQAFIDGPTEALCAMVSDWQIGQDLDLPPEAWAHIKQHGFFALIIPKEYGGKGFSAYAHSQVAMKLATRSGDLASTVMVPNSLGPAELLLHYGTDEQRNRYLPRLARGEEIPCFALTGPLAGSDAGAMPDTGIICKGQWQGEEVIGLRLNWEKRYITLGPVATLLGLAFKAYDPDHLLGEQEELGISLALIPTDTPGVEIGKRHLPLGAAFMNGPNSGKDVFVPLDFLIGGQAMLGKGWMMLMNCLSVGRSISLPAVGTGAAKYTSLVTGQYANIREQFNVPLAAFEGIQESLARIGGNAWLMDSARLLTAKAVDLGEKPSVLSAILKYHLTERGRECIQHAMDVHGGKGIIMGPNNYLGRNWQGAPIFITVEGANILSRNLMIFGQGAIRCHPFVLKEMALAGREDHDQALKEFDDLLMKHILFAAGNAASTLVYGLGLGRFERVPGDALSQGYFRALNRQAAAFAMMADLSMMLLGGALKRRERLSARLGDVLSYLYLASAALKRYHDQGSPEYLQPLLRWAMEESLGQTERALDRLLDNFPNRFVGCALRVLVFPFGRRHKGPGDELDAEVAELIGRRKGDPALEELLAGCYRPQAEHDPVADLQRASDLLEDTAQLSKALYQAVKEGKVQPAPGQSGIDAAVKAGVLQPDDGQRLHEAEQARRKVIDVDAFDKAQLLAVPGKVR”, the protein production result was “failed”.
Turning to “MNHLPEKMRPYRDLLEKSAKEYVKLNVRKGKTGRYDSKIAGDPYFPKHETYPTDENGQPMKLLAQINFSHIPQLDGYPSSGILQFYISVHDDVYGLNFDDRCEQKNFRVIYFENIVENDDELVSDFSFIGTGECDFPILSEAAVEPVKSSEWVLPTDFQFEQYTGMETMEFFGQFGEDEEDIYNELAENGFGHKIGGYASFTQHDPREYAYKEHTIMLLQIDSDDDIDSMWGDVGIANFFITPEDLRKKDFSNVLYNWDCS”, the protein production entry is recorded as “not failed”.
To “MMKETQQWTSKIGFVLAAAGAAVGLGAIWKFPYVAGNGGGGAFFLVFLLLTLFIGMPLLIAEFVIGRSTQKEAVTAYKVLVPNSKLYPWIGRMGVVTCFSVLSFYSVVGGWILLYLYYSVTGSFWNGAADYGQLFGETISNPLSAIGAQFIFMLCTIFVVSKGVEKGIEKASKYMMPLLFILFIAIIVRALTLDGAFAGVEFFLKPDFSKLTADTILYAMGQSFFSLTVGASVMVTYSSYLKKEEHLAKSATSIVSLTVFVTVLAGLAIFPAIFALGVKPTEGPGLLFIVLPAVFAKIPFGQFFFIMFLILFFFATLTSAISMLEIVVASVAKGNEKKRPSASLLIGILIFAVGIPSALSFGIMSDVKIFGKTFFDLVDFSVSNVLLPLGVLAISLFVPNKMSKELLMKELEVTETKGKTLFNIWFFLLRYVIPVTVIIVFLNAIGVFKMFA” belongs “failed”.

(Values after a protein production outcome set (Wang et al. 2014).)
